Measured values reported in the supplement of paper PMC9112550, “Optimization of the antimicrobial peptide Bac7 by deep mutational scanning” (BMC Biology, 2022).

Test system: Escherichia coli TOP10
Experiment: shrunken log2 fold change of peptide-encoding DNA abundance (4.5 h post-induction vs induction); higher = less antimicrobial activity (less host growth inhibition)
Conditions: time post-induction: 4.5 h; library: site-saturation at positions 5, 18, 19, 20
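Also: peptides expressed intracellularly from a pBAD plasmid library in pooled LB shake-flask culture, induced with 0.3% L-arabinose, DNA abundance read by NGS, three biological replicates, DESeq2 with apeglm shrinkage.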

Sequence | shrunken log2 fold change
RRIRKRPPRLPRPRPRPDWTPRP | 1.54
RRIRHRPPRLPRPRPRPPSSPRP | -0.00863
RRIRARPPRLPRPRPRPFADPRP | 0.438
RRIRFRPPRLPRPRPRPPCVPRP | 0.0878
RRIRARPPRLPRPRPRPVVYPRP | -0.285
RRIRIRPPRLPRPRPRPIWKPRP | -0.0131
RRIRKRPPRLPRPRPRPAVFPRP | 0.271
RRIRTRPPRLPRPRPRPTKDPRP | -0.244
RRIRARPPRLPRPRPRPTDNPRP | 0.152
RRIRIRPPRLPRPRPRPTAQPRP | 0.154
RRIRGRPPRLPRPRPRPDYQPRP | -0.418
RRIRGRPPRLPRPRPRPARGPRP | 0.915
RRIRCRPPRLPRPRPRPLEMPRP | -0.249
RRIRYRPPRLPRPRPRPCQIPRP | -0.00804
RRIRLRPPRLPRPRPRPNEQPRP | -0.0127
RRIRCRPPRLPRPRPRPRQLPRP | 0.0916
RRIRGRPPRLPRPRPRPQYQPRP | -0.191
RRIRIRPPRLPRPRPRPQRYPRP | 0.159
RRIRWRPPRLPRPRPRPCNMPRP | -0.179
RRIRWRPPRLPRPRPRPCRSPRP | 0.0427
RRIRIRPPRLPRPRPRPNMLPRP | -1.18
RRIRCRPPRLPRPRPRPMVIPRP | -0.373
RRIRVRPPRLPRPRPRPWQQPRP | -0.097
RRIRPRPPRLPRPRPRPDPMPRP | 0.4
RRIRHRPPRLPRPRPRPFIFPRP | -0.656

Sequence | shrunken log2 fold change
RRIRERPPRLPRPRPRPCHYPRP | -0.224
RRIRMRPPRLPRPRPRPYSQPRP | -0.0394
RRIRCRPPRLPRPRPRPPDHPRP | 0.279
RRIRLRPPRLPRPRPRPGTYPRP | 0.386
RRIRNRPPRLPRPRPRPMVMPRP | -0.383
RRIRWRPPRLPRPRPRPESHPRP | 0.189
RRIRYRPPRLPRPRPRPNPGPRP | -0.000104
RRIRTRPPRLPRPRPRPQSAPRP | -0.0745
RRIRNRPPRLPRPRPRPCMEPRP | -0.206
RRIRMRPPRLPRPRPRPWMVPRP | -0.128
RRIRIRPPRLPRPRPRPPMLPRP | -0.382
RRIRFRPPRLPRPRPRPCAIPRP | -0.0259
RRIRARPPRLPRPRPRPPYTPRP | 0.16
RRIRWRPPRLPRPRPRPPFHPRP | 0.0947
RRIRNRPPRLPRPRPRPRMWPRP | 0.28
RRIRNRPPRLPRPRPRPIIYPRP | -1.06
RRIRRRPPRLPRPRPRPGGYPRP | -0.0378
RRIRHRPPRLPRPRPRPKLAPRP | -0.0576
RRIRIRPPRLPRPRPRPHHTPRP | -0.677
RRIRDRPPRLPRPRPRPKDIPRP | -0.0599
RRIRNRPPRLPRPRPRPYVHPRP | -0.253
RRIRTRPPRLPRPRPRPKRSPRP | 0.207
RRIRKRPPRLPRPRPRPWWVPRP | 0.404
RRIRERPPRLPRPRPRPFDAPRP | -0.0912
RRIRFRPPRLPRPRPRPMVFPRP | -0.0469

Sequence | shrunken log2 fold change
RRIRKRPPRLPRPRPRPQALPRP | 0.228
RRIRLRPPRLPRPRPRPQFLPRP | -0.0896
RRIRWRPPRLPRPRPRPYIEPRP | -0.629
RRIRMRPPRLPRPRPRPPWSPRP | 0.596
RRIRCRPPRLPRPRPRPFRHPRP | -0.143
RRIRFRPPRLPRPRPRPSQPPRP | -0.0776
RRIRGRPPRLPRPRPRPDTWPRP | 0.465
RRIRFRPPRLPRPRPRPFWIPRP | -0.357
RRIRVRPPRLPRPRPRPREHPRP | 0.322
RRIRIRPPRLPRPRPRPCRLPRP | -0.468
RRIRWRPPRLPRPRPRPLQDPRP | -0.0523
RRIRGRPPRLPRPRPRPMWTPRP | 0.311
RRIRTRPPRLPRPRPRPIDWPRP | 0.042
RRIRKRPPRLPRPRPRPLWKPRP | -0.206
RRIRKRPPRLPRPRPRPEAVPRP | 0.15
RRIRTRPPRLPRPRPRPKCHPRP | -0.0989
RRIRSRPPRLPRPRPRPDMHPRP | -0.118
RRIRIRPPRLPRPRPRPHMGPRP | -1.08
RRIRLRPPRLPRPRPRPWDYPRP | 0.0642
RRIRERPPRLPRPRPRPMATPRP | 0.0537
RRIRYRPPRLPRPRPRPQVNPRP | -0.0568
RRIRKRPPRLPRPRPRPDRIPRP | -0.00844
RRIRLRPPRLPRPRPRPQSWPRP | -0.0792
RRIRERPPRLPRPRPRPFPNPRP | -0.165
RRIRARPPRLPRPRPRPAPFPRP | 0.392

Sequence | shrunken log2 fold change
RRIRGRPPRLPRPRPRPKWRPRP | 0.795
RRIRERPPRLPRPRPRPELHPRP | 0.0652
RRIRQRPPRLPRPRPRPICDPRP | -0.0181
RRIRPRPPRLPRPRPRPPIPPRP | 0.15
RRIRCRPPRLPRPRPRPWQVPRP | 0.00859
RRIRCRPPRLPRPRPRPCDTPRP | -0.0925
RRIRGRPPRLPRPRPRPVSKPRP | 0.276
RRIRARPPRLPRPRPRPARDPRP | 0.298
RRIRKRPPRLPRPRPRPQMNPRP | 0.104
RRIRPRPPRLPRPRPRPSAMPRP | 0.0584
RRIRQRPPRLPRPRPRPHMHPRP | -0.39
RRIRNRPPRLPRPRPRPFHYPRP | -0.925
RRIRMRPPRLPRPRPRPTDEPRP | 0.116
RRIRSRPPRLPRPRPRPMNSPRP | -0.776
RRIRYRPPRLPRPRPRPMNKPRP | -0.187
RRIRKRPPRLPRPRPRPMMKPRP | 1.05
RRIRYRPPRLPRPRPRPHFTPRP | -0.817
RRIRTRPPRLPRPRPRPDFLPRP | -0.169
RRIRCRPPRLPRPRPRPFICPRP | -0.57
RRIRIRPPRLPRPRPRPVGTPRP | -0.126
RRIRGRPPRLPRPRPRPCDDPRP | 1.24
RRIRPRPPRLPRPRPRPPYWPRP | -0.123
RRIRMRPPRLPRPRPRPENTPRP | 0.427
RRIRRRPPRLPRPRPRPYWNPRP | -0.368
RRIRRRPPRLPRPRPRPGFLPRP | -0.0551

Sequence | shrunken log2 fold change
RRIRRRPPRLPRPRPRPIPHPRP | 0.822
RRIRLRPPRLPRPRPRPIPCPRP | -0.00241
RRIRLRPPRLPRPRPRPHDSPRP | 0.0936
RRIRVRPPRLPRPRPRPRKVPRP | -0.0445
RRIRIRPPRLPRPRPRPNPFPRP | -0.502
RRIRDRPPRLPRPRPRPSYIPRP | -0.267
RRIRFRPPRLPRPRPRPFVPPRP | -0.668
RRIRDRPPRLPRPRPRPGVDPRP | 1.36
RRIRWRPPRLPRPRPRPRPKPRP | 0.697
RRIRNRPPRLPRPRPRPKMQPRP | -0.0708
RRIRTRPPRLPRPRPRPLLPPRP | 0.112
RRIRSRPPRLPRPRPRPAAFPRP | 0.29
RRIRVRPPRLPRPRPRPGLYPRP | -0.384
RRIRMRPPRLPRPRPRPSQDPRP | 0.224
RRIRWRPPRLPRPRPRPRLNPRP | 0.545
RRIRTRPPRLPRPRPRPWPDPRP | -0.0269
RRIRLRPPRLPRPRPRPGGYPRP | -0.192
RRIRYRPPRLPRPRPRPRRSPRP | -0.0446
RRIRVRPPRLPRPRPRPNGQPRP | 0.0697
RRIRKRPPRLPRPRPRPMCKPRP | 0.0429
RRIRPRPPRLPRPRPRPWWDPRP | -0.204
RRIRTRPPRLPRPRPRPKNMPRP | -0.359
RRIRERPPRLPRPRPRPDFGPRP | -0.0271
RRIRARPPRLPRPRPRPYCSPRP | 0.0743
RRIRCRPPRLPRPRPRPYSIPRP | -0.608

Sequence | shrunken log2 fold change
RRIRYRPPRLPRPRPRPAEKPRP | -0.0964
RRIRTRPPRLPRPRPRPNVNPRP | 1.5
RRIRARPPRLPRPRPRPIPIPRP | 0.354
RRIRVRPPRLPRPRPRPFGWPRP | 0.372
RRIRYRPPRLPRPRPRPQDQPRP | -0.21
RRIRRRPPRLPRPRPRPALVPRP | 0.74
RRIRFRPPRLPRPRPRPEWYPRP | -0.361
RRIRTRPPRLPRPRPRPNDMPRP | -0.209
RRIRSRPPRLPRPRPRPIGAPRP | 0.058
RRIRYRPPRLPRPRPRPHKEPRP | 0.103
RRIRHRPPRLPRPRPRPFTAPRP | -0.559
RRIRNRPPRLPRPRPRPIHTPRP | -0.0125
RRIRDRPPRLPRPRPRPTCTPRP | 0.53
RRIRQRPPRLPRPRPRPYHEPRP | -0.288
RRIRMRPPRLPRPRPRPCVMPRP | 0.0536
RRIRYRPPRLPRPRPRPEKVPRP | -0.241
RRIRMRPPRLPRPRPRPLMHPRP | 0.341
RRIRYRPPRLPRPRPRPLLNPRP | -0.19
RRIRIRPPRLPRPRPRPYKKPRP | -0.0756
RRIRHRPPRLPRPRPRPRQKPRP | -0.01
RRIRMRPPRLPRPRPRPGPGPRP | 2.09
RRIRFRPPRLPRPRPRPTYAPRP | -0.203
RRIRSRPPRLPRPRPRPWKYPRP | 0.0245
RRIRERPPRLPRPRPRPTDHPRP | -0.251
RRIRRRPPRLPRPRPRPVVRPRP | 0.274
